Measurements taken from PMC8034716.

Each substance was assayed against HLA-A*0201 (assay: T2 stabilization assay (BB7.2 anti-HLA-A2 staining)). Details: peptide-pulsed T2 cells; parent: est. 100; read off a plot.

| percent of parent [%] | Substance |
| --- | --- |
| 100 | wild type p53 65-73 peptide (…) A5G |
| 68 | wild type p53 65-73 peptide (…) A6G |
| 76 | wild type p53 65-73 peptide (…) E4A |
| 100 | wild type p53 65-73 peptide (…) E4G |
| 89 | wild type p53 65-73 peptide (…) M2A |
| 89 | wild type p53 65-73 peptide (…) M2G |
| 61 | wild type p53 65-73 peptide (…) P3A |
| 65 | wild type p53 65-73 peptide (…) P3G |
| 84 | wild type p53 65-73 peptide (…) P7A |
| 47 | wild type p53 65-73 peptide (…) P7G |
| 89 | wild type p53 65-73 peptide (…) P8A |
| 72 | wild type p53 65-73 peptide (…) P8G |
| 120 | wild type p53 65-73 peptide (…) R1A |
| 100 | wild type p53 65-73 peptide (…) R1G |
| 110 | wild type p53 65-73 peptide (…) V9A |
| 67 | wild type p53 65-73 peptide (…) V9G |
